From the supplement of paper PMC12042874 come the findings set out here.

± gives the uncertainty stated by the source.

The data set can be described thus: amyloid nucleation score (Sup35N fusion, yeast selection) (log enrichment); library NNK2; higher = more nucleation; inactive = no reads after selection. A digest of the protocol:
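After 24 hours of induction with 100 μM copper sulfate, psi-negative yeast expressing peptides of 20 random codons fused to Sup35N were grown for 7 days at 30°C on medium lacking adenine and uracil. Input and output plasmid inserts were sequenced with Illumina, and sequences with under 100 input reads were discarded. Scores for nucleation are the DiMSum log enrichment of output over input reads, centred on the mode score of non-aggregating sequences.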
Consider KLTPYRISKMPSWLSA, for which the amyloid nucleation score result was “inactive”. As for KLVVLCFLSVIVWVNGQR, the amyloid nucleation score was determined as 4.67 ± 0.07. In turn, KLWSSARFIWLSNHHLHGDC registered an amyloid nucleation score of 1.01 ± 0.57. As for KLWTISVDHPGII, the amyloid nucleation score is -1.45 ± 1. In the case of KLYVAIMNSWILGKVGSYNG it was 6.214 ± 0.034; in that of KMDFAFEA, -0.202 ± 0.8. With KMEMRGCRMVTNMYC, the amyloid nucleation score is -0.06 ± 0.33.

KMIVLK: the amyloid nucleation score worked out at 0.449 ± 0.41. As to KMPGFLVCW, the amyloid nucleation score entry was “inactive”. KMSMSFSWWE: the amyloid nucleation score amounted to 3.51 ± 0.068.

Consider KMSPQ, for which the amyloid nucleation score result was “inactive”. With KNDISHS, the amyloid nucleation score result is “inactive”. Substance KNIAISSRVADAGFWL yielded an amyloid nucleation score of 2.31 ± 0.093. Turning to KNVLLKTLVHWLGRGMSAPG, the amyloid nucleation score came to 0.165 ± 1. KPEVRVEMQCNYVAWYTDMI: the amyloid nucleation score was -0.61 ± 0.37. In the case of KPGMRNNYFLAFGFYCTCTR it was 1.59 ± 0.21; in that of KPGRYRDVIRFLSDLLECNG, “inactive”; in that of KPNFIRLYRIKFNKLGLGIT, -0.855 ± 1. KRFAIPEHTLTTYRQLA: the amyloid nucleation score amounted to 0.082 ± 0.42. As to KRFIESNIVIQSDLTSLRRK, the amyloid nucleation score is -0.184 ± 1.1. Regarding KRMKRLVCGTRVDMYRGSLW, the amyloid nucleation score is -0.222 ± 0.33. KRTWFERLWSSSNRVLGCLC showed an amyloid nucleation score of 4.27 ± 0.051. As to KRWCRGSE, the amyloid nucleation score is 0.229 ± 0.24. KSASCKPIMSYPKVLPS had an amyloid nucleation score of 0.208 ± 0.8. Substance KSHAPFVLMCRIGVGSKCGK registered an amyloid nucleation score of 3.81 ± 0.09. Regarding KSIAGNC, the amyloid nucleation score is -1.48 ± 0.78. The figure for KSIVNL is 0.465 ± 0.41. KSKLRCTFYSDAL came in with an amyloid nucleation score of -0.219 ± 0.27. The substance KSLLWHLQLLAKT registered an amyloid nucleation score of 0.174 ± 0.63. KSMLLMIMSSFGSDIWHITS: the amyloid nucleation score is -0.337 ± 1.1. In the case of KSRIDSESGGGQSFS it was -0.805 ± 0.63.

For KSRNYIFSGYELVASPSSVK, the amyloid nucleation score result was “inactive”. As for KSVKIVSSAMKGWIHSTYSR, the amyloid nucleation score was -0.316 ± 0.28.

Turning to KSVYLSIGDILAFFSIVLLY, the amyloid nucleation score entry was “inactive”. Turning to KSWHPRFQSDMKFHLFCLVV, the amyloid nucleation score is -0.19 ± 0.56.

KTKVL showed an amyloid nucleation score of 0.348 ± 0.65. The substance KTLWPGTWGGLITRVWWYTR had an amyloid nucleation score of 0.471 ± 0.18. Take KTPGSHVGLWSMPGRSYPSA: the amyloid nucleation score came to 0.401 ± 0.45. KTRHKVLRKDL: the amyloid nucleation score is -1.64 ± 0.54. In the case of KVAFLLRVGAYFDSWWHRRV, the amyloid nucleation score came to 0.166 ± 0.39. For KVALINYSLPMYFSVVTGLY, the amyloid nucleation score was determined as 2.97 ± 0.071.

Regarding KVALVHAGLKNFWRSSLWRL, the amyloid nucleation score stood at 1.11 ± 0.41.

As to KVARGVCYCRFSL, the amyloid nucleation score result was “inactive”.

With KVFNSLASYSSIDLWCVVAG, the amyloid nucleation score result was “inactive”.

For the substance KVGNGRDCIMLTVSCA, the amyloid nucleation score was 0.748 ± 0.23.

Substance KVKSWCTGLLGA returned an amyloid nucleation score of 0.075 ± 0.76. Consider KVLATMGDIGVVLSVMLVPV, for which the amyloid nucleation score stood at 1.33 ± 0.3. In the case of KVLCWLRVRYLKGLGQGSAC it was 0.358 ± 0.31. The figure for KVLVRHLRCAISPSF is 0.256 ± 1; for KVTSMHVFIESWGV it is 0.082 ± 0.79. In turn, KVVIYGCSS displayed an amyloid nucleation score of -0.183 ± 0.65.

The substance KWCPLFKGSIGFSFLVHTMK returned an amyloid nucleation score of -1.26 ± 1.1. In the case of KWITVYETVNCMSGWFIQDL it was 6.622 ± 0.033; in that of KWVVKMDVGCVPSQTRRGSW, 1.05 ± 0.4. Turning to KYCMRDDSSSLMYLWGCTRG, the amyloid nucleation score was -0.168 ± 0.29. Take KYFRICRVYLNTLLPLVTLV: the amyloid nucleation score entry was “inactive”. In the case of KYSAQIL it was 0.172 ± 0.33.
